Laboratory results taken from patent US20220306734A1 (H LUNDBECK A S, published 2022).

Key:
[1] = molecular target: full-length (FL) human mGluR5 on BA/F3-mGluR5 clone 10C9 cells (human) (UniProt P41594); test: flow cytometry, BA/F3-mGluR5 10C9 cells; low end tied to Ab22 by Table 2
[2] = molecular target: human mGluR5 extracellular domain (human-mGluR5-ECD) (human) (UniProt P41594); test: HTRF, soluble ECD
[3] = molecular target: human mGluR5 extracellular domain (human-mGluR5-ECD) (human) (UniProt P41594); test: HTRF, soluble ECD; remark: listed apart in the source
[4] = molecular target: full-length (FL) human mGluR5 on BA/F3-mGluR5 clone 10C9 cells (human) (UniProt P41594); test: cell-based or functional assay
[5] = molecular target: full-length (FL) human mGluR5 on BA/F3-mGluR5 clone 10C9 cells (human) (UniProt P41594); test: flow cytometry, BA/F3-mGluR5 10C9 cells, 10 ug/ml antibody
[6] = molecular target: full-length (FL) human mGluR5 on BA/F3-mGluR5 clone 10C9 cells (human) (UniProt P41594); test: flow cytometry, BA/F3-mGluR5 10C9 cells; high end tied to Ab4 by Table 2
[7] = molecular target: T1, rat mGluR5 extracellular domain (rat-mGluR5-ECD) (rat, UniProt P31424 21-504); test: HTRF, soluble ECD
T1 construct: ECD construct made 'in a similar fashion' to the human one
T1 sequence (P31424 other isoform, or with tags, fused parts or gaps limits assumed, form in doubt): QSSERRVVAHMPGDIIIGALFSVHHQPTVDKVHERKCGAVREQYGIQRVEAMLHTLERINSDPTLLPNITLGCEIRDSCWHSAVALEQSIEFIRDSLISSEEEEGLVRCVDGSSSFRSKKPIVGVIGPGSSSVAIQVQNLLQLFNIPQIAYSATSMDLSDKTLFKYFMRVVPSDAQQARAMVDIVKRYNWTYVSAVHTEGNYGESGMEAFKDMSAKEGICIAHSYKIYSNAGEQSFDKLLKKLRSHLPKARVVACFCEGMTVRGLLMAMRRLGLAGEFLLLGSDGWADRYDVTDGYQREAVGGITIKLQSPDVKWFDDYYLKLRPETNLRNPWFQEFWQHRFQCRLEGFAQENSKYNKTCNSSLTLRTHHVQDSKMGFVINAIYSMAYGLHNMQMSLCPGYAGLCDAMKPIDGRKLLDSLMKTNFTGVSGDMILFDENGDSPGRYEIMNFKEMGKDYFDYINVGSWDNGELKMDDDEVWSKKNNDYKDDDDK
Experimental: (§1) Binding of antibodies to mGluR5/mGluRJ measured via Homogeneous Time-Resolved Fluorescence (HTRF). Binding assays were performed using HTRF reagents from CisBio. Ten microliters of an antibody dilution series (highest final concentration of 30 nM) was incubated with 10 μl of mGluR-ECD (10 nM final concentration) in HTRF buffer (50 mM Phosphate buffer pH7, 0.8M KF (potassium fluoride), 0.2% BSA). Twenty microliters of Europium-labeled anti-hu-Fc donor (2 nM final concentration, CisBio Catalog No. 61HFCKLB) and 20 μl of XL665-labeled anti-Flag acceptor (60 nM final concentration, CisBio Catalog No. 61FG2XLB) were added to each well and incubated for 1 hour at room temperature. Alternatively, the antibody dilution series was incubated with 10 μl of biotinylated mGluR-ECD (10 nM final concentration), and 20 μl of Europium-labeled anti-hu-Fc donor (2 nM final concentration) and 20 μl of d2-labeled streptavidin acceptor (60 nM final concentration, CisBio Catalog No. 610SADLB) were added to each well. Fluorescence was measured at 620 and 665 nm with a delay of 300 μsec. Results were expressed as the ratio of signal at 665 nm over 620 nm. EC₅₀ values were calculated for binding of Ab1-Ab23 to human-mGluR5-ECD, of Ab1-Ab21 to rat-mGluR5-ECD, and of Ab1, Ab2 and Ab4-Ab12 to monkey-mGluR5-ECD and to human-mGluR1-ECD (TABLE 1).

[8] = molecular target: T2, cynomolgus monkey mGluR5 extracellular domain (monkey-mGluR5-ECD) (cynomolgus monkey, UniProt P41594 21-580 (human entry), limits assumed); test: HTRF, soluble ECD
T2 construct: ECD construct made 'in a similar fashion' to the human one; also called cyno-mGluR5
T2 sequence (P41594 other isoform, or with tags, fused parts or gaps limits assumed): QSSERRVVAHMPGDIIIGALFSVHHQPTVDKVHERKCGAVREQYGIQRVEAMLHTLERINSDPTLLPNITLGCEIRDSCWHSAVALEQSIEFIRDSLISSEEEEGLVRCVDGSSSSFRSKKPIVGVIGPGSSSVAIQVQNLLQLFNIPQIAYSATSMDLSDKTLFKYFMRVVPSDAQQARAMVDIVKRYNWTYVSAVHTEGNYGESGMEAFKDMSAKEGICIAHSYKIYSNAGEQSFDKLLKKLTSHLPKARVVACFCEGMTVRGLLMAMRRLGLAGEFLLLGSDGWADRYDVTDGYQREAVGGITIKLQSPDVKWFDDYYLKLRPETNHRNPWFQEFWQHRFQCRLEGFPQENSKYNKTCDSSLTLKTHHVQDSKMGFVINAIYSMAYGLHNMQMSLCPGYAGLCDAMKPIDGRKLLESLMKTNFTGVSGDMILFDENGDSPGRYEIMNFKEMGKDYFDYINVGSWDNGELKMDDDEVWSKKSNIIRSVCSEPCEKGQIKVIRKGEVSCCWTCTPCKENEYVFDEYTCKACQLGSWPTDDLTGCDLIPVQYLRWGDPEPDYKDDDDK
Experimental: as §1

[9] = molecular target: T3, human mGluR1 extracellular domain (human-mGluR1-ECD) (human, UniProt Q13255 19-592, limits assumed); test: HTRF, soluble ECD
T3 construct: ECD construct made 'in a similar fashion' to the human mGluR5 one; also called hu-mGluR1
T3 sequence (Q13255 other isoform, or with tags, fused parts or gaps limits assumed): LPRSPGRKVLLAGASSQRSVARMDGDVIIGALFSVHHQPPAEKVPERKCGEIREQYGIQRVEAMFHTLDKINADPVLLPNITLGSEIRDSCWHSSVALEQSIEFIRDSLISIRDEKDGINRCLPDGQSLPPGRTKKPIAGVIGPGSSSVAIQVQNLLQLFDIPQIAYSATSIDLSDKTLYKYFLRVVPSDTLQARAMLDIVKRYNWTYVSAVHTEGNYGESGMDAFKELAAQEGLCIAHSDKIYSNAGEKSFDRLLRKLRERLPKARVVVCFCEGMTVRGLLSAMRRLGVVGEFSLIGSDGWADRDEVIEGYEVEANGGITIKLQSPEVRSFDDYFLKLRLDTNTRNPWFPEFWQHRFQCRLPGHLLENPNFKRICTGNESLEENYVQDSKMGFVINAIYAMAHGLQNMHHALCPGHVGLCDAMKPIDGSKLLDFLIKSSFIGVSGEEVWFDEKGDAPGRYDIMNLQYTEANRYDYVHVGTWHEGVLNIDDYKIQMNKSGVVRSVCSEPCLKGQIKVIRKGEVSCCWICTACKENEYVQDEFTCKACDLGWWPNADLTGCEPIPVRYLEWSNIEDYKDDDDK
Experimental: as §1

[10] = molecular target: human mGluR5 extracellular domain (human-mGluR5-ECD) (human) (UniProt P41594); test: AlphaLISA, biotinylated ECD
[11] = molecular target: human mGluR5 extracellular domain (human-mGluR5-ECD) (human) (UniProt P41594); test: AlphaLISA, biotinylated ECD; remark: listed apart in the source

Sequence of human mGluR5 extracellular domain (human-mGluR5-ECD) (human) (P41594 other isoform, or with tags, fused parts or gaps): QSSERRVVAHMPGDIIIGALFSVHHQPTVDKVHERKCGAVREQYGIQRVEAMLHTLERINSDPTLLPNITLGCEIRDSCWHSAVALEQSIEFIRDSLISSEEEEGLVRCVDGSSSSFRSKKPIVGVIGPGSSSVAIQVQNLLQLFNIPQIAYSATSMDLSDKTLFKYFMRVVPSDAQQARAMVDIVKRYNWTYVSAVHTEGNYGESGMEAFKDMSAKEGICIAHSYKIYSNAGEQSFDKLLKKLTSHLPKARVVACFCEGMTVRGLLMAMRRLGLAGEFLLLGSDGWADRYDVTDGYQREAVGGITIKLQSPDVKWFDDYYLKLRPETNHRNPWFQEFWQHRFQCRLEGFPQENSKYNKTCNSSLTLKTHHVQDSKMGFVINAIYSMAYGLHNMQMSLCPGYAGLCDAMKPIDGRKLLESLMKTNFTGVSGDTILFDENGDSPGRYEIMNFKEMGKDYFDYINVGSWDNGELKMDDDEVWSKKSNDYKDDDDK

B1: mGluR5 Ab22 (antibody, V domains shown)
VH: QSLEESGGDLVKPGASLTLTCTASGFSFSTSYYMCWVRQAPGKGLEWIGCIHTSTFSTWYASWAKGRFTISKTSSTTVTLQMTSLTAADTATYFCARRDAYNYAGYAYNLWGQGTLVTVSS
VL: DVVMTQTPASVSAAVGGTVTINCQASEDIYSNLAWYQQKPGQPPKLLIYGASTLASGVPSRFKGSGSGTEFTLTISDLECADAATYYCQCTFGCFSGSSNNIFGGGTEVVVKR
[1]
  fold signal over background: 10 to 42 fold
[2]
  EC50: 0.439 nM
[3]
  EC50: < 2 nM
[4]
  pERK Assay Inhibition IC50-nM: 8.33 nM
[5]
  mGluR5 (FL) cell binding-fold over background: 10.9 fold

B2: mGluR5 Ab4 (antibody, V domains shown)
VH: QQQLEESGGGLVKPGGTLTLTCKGSGIDFNDYQYMCWVRQAPGKGLEWIACIYNGDGETYYAHWAKGRFTISKTSSTTVTLQMTSLTAADTATYFCARGSGVGSYGYNFWGPGTLVTVSS
VL: DIVMTQTPASVEAAVGGTVTIKCQASESIYSNLAWYQQKAGQPPKLLIYRASNLASGVPSRFKGSGSGTEFTLTISDLECADAATYYCQGYYASTVTNGFGGGTEVVVKR
notes: Rabbit variable regions on human heavy and light chain constant regions (chimeric)
[6]
  fold signal over background: 10 to 42 fold
[2]
  EC50: 0.293 nM
[3]
  EC50: < 2 nM
[4]
  pERK Assay Inhibition IC50-nM: 0.34 nM
[7]
  EC50: 0.332 nM
[8]
  EC50: 0.286 nM
[9]
  binding result: no binding
[5]
  mGluR5 (FL) cell binding-fold over background: 41.8 fold

B3: mGluR5 Ab29 (antibody, V domains shown)
VH: QQQLEESGGGLVKPGGTLTLTCKASGIDFSSYHYMCWVRQAPGKGLEWIACIYNGDGDTYYASWAKGRFTISKTSSTTVTLQMTSLTAADTATYFCARGSGVGSYGYNLWGPGTLVTVSS
VL: DIVMTQTPASVEAAVGGTVTIKCQASENIYSNLAWYQQKPGQPPKLLIYRASNLESGVPSRFKGSGSGTEFTLTISDLECDDAATYYCQGYYPSAVTNAFGGGTEVVVKR
[4]
  pERK Assay Inhibition IC50-nM: 0.09 nM
[10]
  EC50: < 2 nM
[11]
  EC50: 0.0891 nM
[5]
  mGluR5 (FL) cell binding-fold over background: 39.6 fold

B4: mGluR5 Ab28 (antibody, V domains shown)
VH: QQQLEESGGGLVKPGGTLTLTCKGSGIDFNDYYYMCWVRQAPGKGLEWIACIYNGDGETYYANWAKGRFTISKTSSTTVTLQMTSLTAADTATYFCARGSGVGSYGYNFWGPGTLVTVSS
VL: DIVMTQTPASVEAAVGGTVTIKCQASESIYSNLAWYQQKPGQPPKLLIYRASNLASGVPSRFKGSGSGTEFTLTISDLECADAATYYCQGYYASTVTNAFGGGTEVVVKR
[4]
  pERK Assay Inhibition IC50-nM: 0.11 nM
[10]
  EC50: < 2 nM
[11]
  EC50: 0.0918 nM
[5]
  mGluR5 (FL) cell binding-fold over background: 38.9 fold
